# Source: article PMC9179170 (Nature, 2021)
# B1: MBP–GRLBD(520–777) (F602S) (domain or fragment, UniProt P04150 520-777, looked up)
# chain: IVPATLPQLTPTLVSLLEVIEPEVLYAGYDSSVPDSTWRIMTTLNMLGGRQVIAAVKWAKAIPGFRNLHLDDQMTLLQYSWMSLMAFALGWRSYRQSSANLLCFAPDLIINEQRMTLPCMYDQCKHMLYVSSELHRLQVSYEEYLCMKTLLLLSSVPKDGLKSQELFDEIRMTYIKELGKAIVKREGNSSQNWQRFYQLTKLLDSMHEVVENLLNYCFQTFLDKTMSIEFPEMLAEIITNQIPKYSNGNIKKLLFHQK
# Target: Hsp90α ATP-binding-deficient mutant Hsp90(D93N) (human, UniProt P07900 1-732, D93N)
# Experiment: cryo-EM structure
binder,measurement,value
B1,binding result,binds
